To fix the notation:
B1: unnamed (protein)
chain: MVPTTVDFDTLCPEPIFQDRWVATPRGRVFTRTWETSHLRSDVPIVLLHDSLGCVDLWRSFPAALCAATQRRVIAYDRLGFGRSDACLTPPLLSFIDDEPSTSFAALQSAFQLTHFIALGHSVGGCMAVHCAGQYVEQCQGLITIAAQAVNEPRTQQGIEEARAAFQMPEQFAKLEKYHGNKARWVLNGWIDTWLHPAFEHWSLTPALQHVHCPTLVLHGENDEYGSHRQPEGIARHTRGPAHTEILPGVGHVPHREVEAVVVHYVSEFIERLTP
B2: unnamed (protein)
chain: MPPFRSSRWLSGGHVQTLYSPLWRASPQLQRRRERMTLQDGDFIDLDWYGPEGEATNCVLLLHGLTGSSASLYILGQQQALAARGWQSAAVNWRGCSGEPNHRARGYHSGVSEDLADVVKQLTLRYPHKLFAAIGYSLGGNVLLKYLGEKGSNTPLKAAVAVSVPFRLDHCAERINKGFSRVYQARFLRGLRRYVEHKRQAFLRQGRRGELARLAALETLKGMKTFWDFDGRVTAPLHGFESADDYYRRCSSAFFVEQIRIPTLIVHSLDDPFIYPQSVPKAEVLPSCVTLELHASGGHVGFIEGPPWRPRYYLEHRLPNWLQSQLCSQGKTHNTSALLSN
B3: unnamed (protein)
chain: MFRFHIVSALLTLFIAVPSQAHDVGQREIKISGAEPGRNLEVSVWYPAAIDGKATLIGDNIIFKGAPAVIDATPEKGSFPLLVMSHGSGGRAQGMAWLATELVKAGIIVAAPNHPGTTSGDSTPQDTPKIWQRTGDLSAVIDTMTTDPAWSGIIDKNKISVLGWSLGGAAAMEIAGARANLEAYARYCDTYGKWDCAWYAGGIGYRDDKQIKVDKVDLRSVDKSRFEQSNLDRRIASAIMIDPGLAQAYDAQSLASISIPMSFINLGEVETIPTGVVADKLASITPQGTYVTVAGATHFSFLPECKKGAADRLKSAGEVDPICSDDARRPRADIHADITKLVLKALQSMPKT
B4: unnamed (protein)
chain: B3 chain with W164F, S165A
B5: unnamed (protein)
chain: B3 chain with W164F, H298A
B6: unnamed (protein)
chain: B3 chain with W164F, D242A
B7: unnamed (protein)
chain: B3 chain with W164F, F299W
B8: unnamed (protein)
chain: B3 chain with W164F, A294D
B9: unnamed (protein)
chain: B3 chain with W164F, C188A
B10: unnamed (protein)
chain: B3 chain with W164F, F299I
B11: unnamed (protein)
chain: B3 chain with W164F, L166M
B12: unnamed (protein)
chain: B3 chain with W164H
B13: unnamed (protein)
chain: MRKETAWFVGGAAIAAATAAGASVWSQYGSLVRWQEPELPIQPTTRRRHTYTYKIVHDRPLQFDLYLPPGEGPFPVAVYAHGGAFVRGNRSMVTLFHPLLDHFLGKGIAVVSIDYRLFEDGVYFPDNIFDVSDALCYLKQHESLLTLDTSQLLVWGDSAGAALMLATALDRYRQFAGDLGDDLPTIKGVIALYPPTNFLLFKFIQTWLAHLKFYEGSREEWRELMVKCSPVSHLYADAPPILLLHGKKDPIVPFGQALHFVEHASDVGANVQLISFPNGTHSLASFLQSDNPIKEEQLMARINRFIEECLG
B14: unnamed (protein)
chain: MLHYKTYTISDDHPWVIFIHGAGGSLSHWYRQLRPFRKKYNVLLVDLRGHGGSYDAEQSLKQPLNAYTFDVVAKDVIEVMDHLGIEKGHMVGLSLGTIVIQAMFEHYPDRIASVVLGGAIVKFNVRSTMLIRLGSLVQNFVPYMWLYKLFAWILLPKKRHKKSRMMFVRDAANLCQREFIRWFKMTENINPLLNQFTSIQTNVPILYIMGDEDYMFLEAVERTAKHQPTANVEIVADSGHVVNVDQPDQFNALSMNFIDDQIQARSLQMS

Positions count from the first letter of the chain named.

Substrate in one data set: pNPB
In words: Proxy for plastic degradation [p-nitrophenol (pNP) release]. The conditions noted are these: pH 7.4.
Turning to B1, the “Proxy for plastic degradation” value was found to be 30 U/mL. The same measure, in the same setting: as for B2, the figure is 3 U/mL; as for B3, 5 U/mL; as for B4, 15 U/mL. Still for that read-out and setting: as for B5, the figure is 15 U/mL; as for B6, 20 U/mL.

On to B7, for which the “Proxy for plastic degradation” value is 110 U/mL. Still for that read-out and setting: as for B8, the figure is 100 U/mL; as for B9, 10 U/mL; as for B10, 75 U/mL. On the same count and under the same terms, the result for B11 reads 225 U/mL; that for B12, 15 U/mL.

With B13, the “Proxy for plastic degradation” value was 25 U/mL. Same read-out and setting: the result for B14 reads 4 U/mL.

Substrate in the next data set: PET
Description: Proxy for plastic degradation [Released monomer concentration (HPLC/LC-MS) (TPA)]. Particulars: pH 8.
Consider B8, for which the “Proxy for plastic degradation” value came to 1 mM/mg.
